The values below come from US5851983.

Read-outs that look alike come from different tables or passages of the source. Where only a bound is given, the exact number is not on record here.

Experiment [1] addresses Polymorphonuclear leukocyte elastase from human sputum (EPC Co.; Funakoshi Yakuhin) (human) (UniProt P08246).
Experiment [2] concerns the target Bovine spleen trypsin (Sigma) (bovine) (UniProt P00760).
The target in experiment [3] is Polymorphonuclear leukocyte elastase from human sputum (EPC Co.; Funakoshi Yakuhin) (human) (UniProt P08246). The source holds these as a separate data set.
Experiment [4] deals with Bovine spleen trypsin (Sigma) (bovine) (UniProt P00760). This is another data set of the same source.
Bovine spleen trypsin (Sigma) (bovine), sequence (P00760 24-246): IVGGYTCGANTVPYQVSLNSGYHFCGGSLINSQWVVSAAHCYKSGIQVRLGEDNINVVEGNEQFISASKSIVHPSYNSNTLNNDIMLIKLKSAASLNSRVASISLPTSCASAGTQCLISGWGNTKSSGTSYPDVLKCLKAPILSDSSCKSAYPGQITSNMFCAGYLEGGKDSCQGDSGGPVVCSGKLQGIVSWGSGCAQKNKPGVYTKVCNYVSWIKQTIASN
The target in experiment [5] is Calf pancreatic trypsin (Sigma) (calf (bovine)) (UniProt P00760).
Calf pancreatic trypsin (Sigma) (calf (bovine)), sequence (P00760 24-246): as above
In experiment [6] the target is Human plasma kallikrein (human) (UniProt P03952).
In experiment [7] the target is Human plasma thrombin (human) (UniProt P00734).
The target of experiment [8] is Porcine pancreatic elastase (Sigma) (porcine) (UniProt P00772).
Porcine pancreatic elastase (Sigma) (porcine), sequence (P00772 27-266): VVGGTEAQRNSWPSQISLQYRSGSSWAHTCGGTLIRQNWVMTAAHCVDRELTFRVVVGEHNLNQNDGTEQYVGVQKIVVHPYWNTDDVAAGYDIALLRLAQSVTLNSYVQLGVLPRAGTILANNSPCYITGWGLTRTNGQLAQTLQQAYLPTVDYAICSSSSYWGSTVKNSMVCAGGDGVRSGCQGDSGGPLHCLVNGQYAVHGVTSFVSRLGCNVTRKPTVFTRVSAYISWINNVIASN
Experiment [9] concerns the target Human plasma plasmin (human) (UniProt P00747).
Experiment [10] has as its target Calf pancreatic chymotrypsin (Sigma) (calf (bovine)) (UniProt P00766).
Experiment [11] deals with Polymorphonuclear leukocyte elastase from human sputum (EPC Co.; Funakoshi Yakuhin) (human) (UniProt P08246). The source holds these as a separate data set.
Experiment [12] shares this target. This is another data set of the same source.
The target of experiment [13] is Bovine spleen trypsin (Sigma) (bovine) (UniProt P00760). The source holds these as a separate data set.

(Arg^59 -Ala^107) SLPI, sequence (chain): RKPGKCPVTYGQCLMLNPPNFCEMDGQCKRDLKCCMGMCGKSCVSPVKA
α1 -AT (Sigma), sequence (P01009 25-418 limits assumed): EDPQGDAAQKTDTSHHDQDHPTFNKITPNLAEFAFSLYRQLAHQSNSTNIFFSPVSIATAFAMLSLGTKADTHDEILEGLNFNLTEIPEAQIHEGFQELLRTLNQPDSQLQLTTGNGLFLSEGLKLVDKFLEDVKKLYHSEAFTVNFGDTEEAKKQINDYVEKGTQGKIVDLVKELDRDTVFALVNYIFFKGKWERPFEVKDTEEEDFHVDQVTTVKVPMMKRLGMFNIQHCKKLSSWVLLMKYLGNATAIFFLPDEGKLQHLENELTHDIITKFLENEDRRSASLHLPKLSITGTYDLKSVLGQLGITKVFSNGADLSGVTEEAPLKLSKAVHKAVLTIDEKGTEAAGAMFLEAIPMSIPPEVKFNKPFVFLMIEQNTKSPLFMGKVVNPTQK
Human secretory leukoprotease inhibitor (SLPI), sequence (chain): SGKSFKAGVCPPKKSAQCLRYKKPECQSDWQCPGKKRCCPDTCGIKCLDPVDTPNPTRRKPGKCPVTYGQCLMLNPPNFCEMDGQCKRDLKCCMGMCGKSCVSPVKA
(Arg^58 -Ala^107) SLPI, sequence (chain): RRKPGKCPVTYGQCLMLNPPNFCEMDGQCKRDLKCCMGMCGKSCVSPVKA
(Asn^55 -Ala^107) SLPI fragment polypeptide, sequence (chain): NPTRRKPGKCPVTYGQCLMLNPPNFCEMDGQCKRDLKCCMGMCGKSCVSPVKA
Human plasma plasmin (human), sequence (P00747 97-810 limits assumed): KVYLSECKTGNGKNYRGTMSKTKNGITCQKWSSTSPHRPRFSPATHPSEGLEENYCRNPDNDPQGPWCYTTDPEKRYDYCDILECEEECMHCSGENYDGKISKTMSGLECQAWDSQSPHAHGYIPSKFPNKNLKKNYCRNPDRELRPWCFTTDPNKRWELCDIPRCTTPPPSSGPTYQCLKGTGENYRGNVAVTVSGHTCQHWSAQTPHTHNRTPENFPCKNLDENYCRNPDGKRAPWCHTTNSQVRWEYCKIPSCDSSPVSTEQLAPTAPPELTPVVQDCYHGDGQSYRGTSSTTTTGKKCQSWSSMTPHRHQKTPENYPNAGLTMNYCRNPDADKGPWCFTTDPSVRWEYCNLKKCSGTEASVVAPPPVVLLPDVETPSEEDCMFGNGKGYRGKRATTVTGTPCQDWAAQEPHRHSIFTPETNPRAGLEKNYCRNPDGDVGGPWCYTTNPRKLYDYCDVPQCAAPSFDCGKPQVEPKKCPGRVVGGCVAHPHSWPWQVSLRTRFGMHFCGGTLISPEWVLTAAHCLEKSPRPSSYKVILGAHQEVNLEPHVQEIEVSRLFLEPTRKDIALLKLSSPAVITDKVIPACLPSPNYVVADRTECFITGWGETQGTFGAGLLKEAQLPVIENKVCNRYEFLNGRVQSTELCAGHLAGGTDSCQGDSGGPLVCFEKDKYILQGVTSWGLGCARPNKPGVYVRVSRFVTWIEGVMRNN

“Human secretory leukoprotease inhibitor (SLPI)”: the IC50 in [1] was 13 nM; in experiment [2], 330 nM. Besides, the IC50 Value in experiment [3] came to 16 nM; in experiment [4] it was 240 nM.
In the same order, the values of (Arg^59 -Ala^107) SLPI are 12 nM, 2000 nM, 14 nM and 2500 nM.
In the case of α1 -AT (Sigma) (from UniProt P01009), the concentration of inhibitory protein which exhibits a 50% inhibition in [5] is 200 nM; in experiment [6] it was over 2 µM; in experiment [7], over 2 µM; in experiment [8], 300 nM; in [9] it was over 2 µM; in experiment [10] it was 2 µM.
With “(Asn^55 -Ala^107) SLPI fragment polypeptide”, the results for the concentration of inhibitory protein which exhibits a 50% inhibition in experiment [5] and in [11] were 130 nM and 1 nM, respectively.
On to (Arg^58 -Ala^107) SLPI, for which the IC50 amounted to 12 nM in experiment [12] and 2000 nM in experiment [13].

In general, IC50 refers to the point on the concentration scale where inhibition reaches its midpoint.
